Several values for one entry are separate records, joined by “and”; a condition that tells them apart may be missing. Equal entries are not always repeated.
Molecular target: N-heptad repeat of HIV-1's gp41 (HIV-1 strain IIIB) (HIV-1 strain IIIB), P04578
Assay: cell-based or functional assay

N-heptad repeat of HIV-1's gp41 (HIV-1 strain IIIB) (HIV-1 strain IIIB), P04578, sequence (P04578 540-590 limits assumed): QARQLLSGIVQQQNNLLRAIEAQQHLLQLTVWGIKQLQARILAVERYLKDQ

WMEWDREINNYTSLIHSLIEESQNQQERNEQELL (modifications not checked) [CJC-1646 (SEQ ID NO:93), native (unreactive) C34] was tested, and the RT Results (cpm) (Day 7), HIV-1 IIIB in CBMC, drug at 0 nM (no-drug baseline) was 49000 cpm and 46300 cpm and 47400 cpm, the RT Results (cpm) (Day 7), HIV-1 IIIB in CBMC, drug at 125 nM was 5850 cpm and 5040 cpm and 5220 cpm and the RT Results (cpm) (Day 7), HIV-1 IIIB in CBMC, drug at 600 nM was 4920 cpm and 5850 cpm and 5090 cpm. The RT Results (cpm) (Day 7), HIV-1 IIIB in CBMC, drug at 3000 nM was 5810 cpm and 6960 cpm and 5970 cpm.

In the case of WMEWKREINNYTSLIHSLIEESQNQQERNEQELL (modifications not checked) [CJC-1655 (SEQ ID NO:32), C34 with linker-R1-R2-M inserted at position Asp5], the RT Results (cpm) (Day 7), HIV-1 IIIB in CBMC, drug at 0 nM (no-drug baseline) is reported as 71900 cpm and 54100 cpm and 51000 cpm, the RT Results (cpm) (Day 7), HIV-1 IIIB in CBMC, drug at 125 nM is reported as 6320 cpm and 6930 cpm and 5910 cpm and the RT Results (cpm) (Day 7), HIV-1 IIIB in CBMC, drug at 600 nM is reported as 6480 cpm and 11900 cpm and 6030 cpm. The RT Results (cpm) (Day 7), HIV-1 IIIB in CBMC, drug at 3000 nM was 7970 cpm and 5900 cpm and 6210 cpm.

Source: patent US20080039532A1, “Compounds For Specific Viral Target” (priority 2004, published 2008)
